Test results reported in publication PMC10089660.

Tests used:
[1] = trypsin sensitivity, PON1 ELISA, A549 Golgi/ER fraction; details: glycan lost; control: PON1-WT
[2] = ATF6 ELISA of Golgi/ER fraction, immunofluorescence; details: glycan lost; control: PON1-WT
[3] = trypsin sensitivity, PON1 ELISA, PON1-overexpressing cells Golgi/ER; details: glycan lost; control: PON1-WT
[4] = trypsin sensitivity, PON1 ELISA, H1993-GR Golgi/ER fraction; details: glycan lost; control: PON1-WT
[5] = intracellular arylesterase activity, H1993-GR; details: glycan lost; control: PON1-WT
OxiSelect ROS/RNS assay = details: glycan lost; control: PON1-WT
[6] = intracellular paraoxonase activity, H1993-GR; details: glycan lost; control: PON1-WT
[7] = sandwich ELISA of IL-6, TNF-α, GM-CSF; details: glycan lost; control: PON1-WT
[8] = CHX chase, immunoblot, PON1 remaining, H1993-GR; details: glycan lost; control: PON1-WT
[9] = ELISA of secretome PON1, H1993-GR; details: glycan lost; control: PON1-WT
[10] = SRB drug sensitivity assay; details: glycan lost; control: PON1-WT
[11] = paraoxonase activity, H1993-GR Golgi/ER fraction; details: glycan changed form; control: siControl
[12] = ELISA of secretome PON1, PNGase F in culture; details: glycan lost; control: untreated

B1: paraoxonase 1 (PON1): N253G (protein)
parent chain: MAKLIALTLLGMGLALFRNHQSSYQTRLNALREVQPVELPNCNLVKGIETGSEDLEILPNGLAFISSGLKYPGIKSFNPNSPGKILLMDLNEEDPTVLELGITGSKFDVSSFNPHGISTFTDEDNAMYLLVVNHPDAKSTVELFKFQEEEKSLLHLKTIRHKLLPNLNDIVAVGPEHFYGTNDHYFLDPYLQSWEMYLGLAWSYVVYYSPSEVRVVAEGFDFANGINISPDGKYVYIAELLAHKIHVYEKHANWTLTPLKSLDFNTLVDNISVDPETGDLWVGCHPNGMKIFFYDSENPPASEVLRIQNILTEEPKVTQVYAENGTVLQGSTVASVYKGKLLIGTVFHKALYCEL
stability_or_folding [1]: no change
other: ATF6 level in co-cultured DR clones [2]: increases
stability_or_folding [3]: decreases
stability_or_folding [4]: decreases
enzymatic_activity [5]: decreases
other: ROS/RNS in admixture secretome (OxiSelect ROS/RNS assay): increases
enzymatic_activity [6]: no change
other: secretome cytokine levels [7]: increases
degradation_or_half_life [8]: decreases
expression_or_secretion [9]: decreases
other: EGFR-TKI resistance of GR and ER clones [10]: decreases

B2: paraoxonase 1 (PON1): N324G (protein)
parent chain: B1 parent chain
stability_or_folding [4]: decreases
expression_or_secretion [9]: decreases
other: EGFR-TKI resistance of GR and ER clones [10]: decreases

B3: paraoxonase 1 (PON1): SLC35C1 RNAi (protein)
parent chain: B1 parent chain
enzymatic_activity [11]: no change

B4: paraoxonase 1 (PON1): PNGase F (protein)
parent chain: B1 parent chain
expression_or_secretion [12]: no change
